Literature values as cited in article PMC8168288.

Target: BCOR peptide (Homo sapiens) (UniProt Q6W2J9)
Assay: SPR

BCOR peptide (Homo sapiens), sequence (Q6W2J9 whole entry): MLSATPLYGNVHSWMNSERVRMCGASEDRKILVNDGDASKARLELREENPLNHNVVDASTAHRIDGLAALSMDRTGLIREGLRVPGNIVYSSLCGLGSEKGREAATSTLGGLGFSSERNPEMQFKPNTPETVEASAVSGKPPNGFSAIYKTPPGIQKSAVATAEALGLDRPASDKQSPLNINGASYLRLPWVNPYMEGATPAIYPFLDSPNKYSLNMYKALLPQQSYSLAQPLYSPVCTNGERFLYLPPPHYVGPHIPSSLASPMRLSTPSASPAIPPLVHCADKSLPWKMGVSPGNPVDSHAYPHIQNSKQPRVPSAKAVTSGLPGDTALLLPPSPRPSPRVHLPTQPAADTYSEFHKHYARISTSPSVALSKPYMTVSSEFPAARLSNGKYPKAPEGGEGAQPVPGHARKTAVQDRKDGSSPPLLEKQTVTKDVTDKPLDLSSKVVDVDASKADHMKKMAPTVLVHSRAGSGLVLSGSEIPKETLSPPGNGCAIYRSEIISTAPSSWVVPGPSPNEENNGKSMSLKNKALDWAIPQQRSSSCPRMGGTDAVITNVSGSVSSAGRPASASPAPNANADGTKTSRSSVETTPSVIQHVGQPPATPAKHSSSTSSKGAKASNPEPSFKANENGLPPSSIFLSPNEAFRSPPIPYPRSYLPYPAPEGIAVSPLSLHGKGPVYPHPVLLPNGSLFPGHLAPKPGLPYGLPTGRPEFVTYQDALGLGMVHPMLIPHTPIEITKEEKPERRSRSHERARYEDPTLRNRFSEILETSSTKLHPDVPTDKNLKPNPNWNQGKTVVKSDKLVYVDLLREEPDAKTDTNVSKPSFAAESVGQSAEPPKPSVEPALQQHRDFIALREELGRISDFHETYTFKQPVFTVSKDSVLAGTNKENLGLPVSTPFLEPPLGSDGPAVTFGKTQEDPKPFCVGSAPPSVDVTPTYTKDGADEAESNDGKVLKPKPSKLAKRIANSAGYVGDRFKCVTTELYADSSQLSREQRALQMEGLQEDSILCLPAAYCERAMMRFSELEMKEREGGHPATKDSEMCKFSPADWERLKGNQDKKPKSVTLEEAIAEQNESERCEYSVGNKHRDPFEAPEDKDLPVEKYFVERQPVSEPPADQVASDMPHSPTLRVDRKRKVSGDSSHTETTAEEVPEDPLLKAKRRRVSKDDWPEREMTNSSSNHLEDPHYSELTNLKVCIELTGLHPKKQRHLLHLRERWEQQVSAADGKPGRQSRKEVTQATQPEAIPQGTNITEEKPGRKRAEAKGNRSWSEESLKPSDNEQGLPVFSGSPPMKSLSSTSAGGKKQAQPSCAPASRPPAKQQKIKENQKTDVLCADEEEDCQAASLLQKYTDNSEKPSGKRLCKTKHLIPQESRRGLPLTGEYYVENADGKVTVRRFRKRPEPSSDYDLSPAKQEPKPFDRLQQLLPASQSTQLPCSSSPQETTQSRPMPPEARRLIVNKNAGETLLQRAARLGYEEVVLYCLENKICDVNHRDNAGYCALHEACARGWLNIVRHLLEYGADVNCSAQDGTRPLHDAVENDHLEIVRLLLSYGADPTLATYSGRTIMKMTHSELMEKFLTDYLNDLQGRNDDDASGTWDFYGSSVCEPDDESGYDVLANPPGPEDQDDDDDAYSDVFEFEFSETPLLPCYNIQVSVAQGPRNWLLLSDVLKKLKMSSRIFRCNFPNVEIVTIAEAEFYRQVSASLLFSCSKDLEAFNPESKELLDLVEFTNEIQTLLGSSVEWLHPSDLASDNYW

- Kd: 6 µM
Substance: BCL6 BTB (from UniProt P41182)
